Data: patent US20140274782A1 (Stanford University, published 2014)

Tests used:
[1] = target: T1, 3× Flag-SIRT1 methylated by G9a at lysine 622 (293T cells) (UniProt Q96EB6 1-747, methyl-lysine at K622 (state not stated)); assay: GSH-Sepharose pull-down from 293T nuclear extract, anti-Flag Western blot
T1 construct: also called methylated SIRT1; not shown: 3× Flag tag of p3×FLAG-CMV-7
T1 sequence (looked up): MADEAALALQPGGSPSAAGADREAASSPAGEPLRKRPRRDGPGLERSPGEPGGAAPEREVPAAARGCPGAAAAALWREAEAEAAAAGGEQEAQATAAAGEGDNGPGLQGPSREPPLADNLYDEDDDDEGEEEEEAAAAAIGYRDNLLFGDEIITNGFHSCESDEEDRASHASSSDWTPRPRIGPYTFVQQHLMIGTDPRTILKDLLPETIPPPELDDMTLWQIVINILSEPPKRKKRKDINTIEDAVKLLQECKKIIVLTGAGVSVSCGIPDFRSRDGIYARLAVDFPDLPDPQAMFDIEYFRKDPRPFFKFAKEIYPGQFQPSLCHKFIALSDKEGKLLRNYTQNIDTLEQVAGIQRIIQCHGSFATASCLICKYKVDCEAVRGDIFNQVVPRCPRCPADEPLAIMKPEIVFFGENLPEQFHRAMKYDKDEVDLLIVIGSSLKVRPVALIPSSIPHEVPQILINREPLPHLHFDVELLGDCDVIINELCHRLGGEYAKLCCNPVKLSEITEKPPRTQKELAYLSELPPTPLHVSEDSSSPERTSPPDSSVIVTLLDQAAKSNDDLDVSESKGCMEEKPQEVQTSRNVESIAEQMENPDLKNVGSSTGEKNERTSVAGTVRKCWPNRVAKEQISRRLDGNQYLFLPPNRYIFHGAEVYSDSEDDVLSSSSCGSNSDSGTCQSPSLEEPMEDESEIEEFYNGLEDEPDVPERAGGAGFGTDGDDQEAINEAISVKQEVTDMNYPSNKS

[2] = target: recombinant H3 dimethylated at lysine 9 by G9a SET domain (UniProt P68431 2-136); assay: Far Western on in vitro methylation reactions
[3] = target: T2, p53 mono-methylated at lysine 382 by SET8 (UniProt P04637 1-393, monomethyl-lysine at K382); assay: Far Western on in vitro methylation reactions
T2 construct: also called p53K382me1; monomethylated p53

[4] = target: H3 from HeLa nuclear extract (UniProt P68431 2-136); assay: GSH-Sepharose pull-down from HeLa nuclear extract, Western blot
[5] = target: T3, RelA mono-methylated at lysine 310 by SETD6 (293T cells) (UniProt Q04206 1-551, monomethyl-lysine at K310); assay: GSH-Sepharose pull-down from 293T nuclear extract, Western blot
T3 construct: also called RelAK310me1; methylated RelA

[6] = target: T4, biotinylated mono-methylated H4K20 peptide (H4 amino acids 1-23) (UniProt P62805 2-24, monomethyl-lysine at K20; biotinylated); assay: peptide pull-down, Western blot
T4 construct: range 1-23; also called H4K20me1

[7] = target: T5, biotinylated di-methylated H4K20 peptide (H4 amino acids 1-23) (UniProt P62805 2-24, dimethyl-lysine at K20; biotinylated); assay: peptide pull-down, Western blot
T5 construct: range 1-23; also called H4K20me2

[8] = target: T4, biotinylated mono-methylated H4K20 …; assay: peptide pull-down, α-Flag Western blot
[9] = target: T5, biotinylated di-methylated H4K20 …; assay: peptide pull-down, α-Flag Western blot
[10] = target: T2, p53 mono-methylated at lysine 382 by …; assay: Far Western, α-Flag detection (FIG. 9C)
3× Flag-SIRT1K622R = target: T6, 3× Flag-SIRT1K622R (UniProt Q96EB6 1-747); assay: GSH-Sepharose pull-down from 293T nuclear extract, anti-Flag Western blot
T6 construct: not shown: 3× Flag tag of p3×FLAG-CMV-7
T6 sequence (looked up): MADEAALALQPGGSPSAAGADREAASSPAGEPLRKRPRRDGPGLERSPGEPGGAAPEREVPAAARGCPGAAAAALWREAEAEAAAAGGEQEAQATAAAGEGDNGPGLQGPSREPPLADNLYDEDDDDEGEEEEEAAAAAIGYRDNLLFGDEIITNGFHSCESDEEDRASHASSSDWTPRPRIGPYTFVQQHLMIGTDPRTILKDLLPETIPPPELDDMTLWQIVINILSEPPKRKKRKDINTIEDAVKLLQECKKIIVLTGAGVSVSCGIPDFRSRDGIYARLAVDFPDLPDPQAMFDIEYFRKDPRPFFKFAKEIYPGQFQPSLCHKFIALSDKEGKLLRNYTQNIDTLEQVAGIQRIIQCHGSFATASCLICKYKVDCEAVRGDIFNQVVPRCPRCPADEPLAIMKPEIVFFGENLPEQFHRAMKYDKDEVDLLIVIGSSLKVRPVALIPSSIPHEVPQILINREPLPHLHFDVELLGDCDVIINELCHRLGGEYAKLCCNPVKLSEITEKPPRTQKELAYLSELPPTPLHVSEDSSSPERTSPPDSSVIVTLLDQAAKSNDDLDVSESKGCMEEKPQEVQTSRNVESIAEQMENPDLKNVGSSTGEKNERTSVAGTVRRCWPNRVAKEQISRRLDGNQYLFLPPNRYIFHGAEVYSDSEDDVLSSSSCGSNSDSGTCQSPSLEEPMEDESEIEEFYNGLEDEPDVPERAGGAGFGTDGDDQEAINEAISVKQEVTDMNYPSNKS

[11] = target: T7, recombinant p53 carrying K382R substitution (UniProt P04637 1-393); assay: Far Western on in vitro methylation reactions
T7 construct: also called p53K382R

[12] = target: T8, RelA carrying K310R substitution (UniProt Q04206 1-551); assay: GSH-Sepharose pull-down from 293T nuclear extract, Western blot
T8 construct: also called RelAK310R

B1: GST-tagged 3×MBTD355N (methyllysine-binding mutant) (designed binder)
chain: EEWSSSQPATGEKKECWSWESYLEEQKAITAPVSLFQDSQAVTHNKNGFKLGMKLEGIDPQHPSMYFILTVAEVCGYRLRLHFDGYSECHDFWVNANSPDIHPAGWFEKTGHKLQPPKGYKEEEFSWSQYLRSTRAQAAPKHLFVSQSHSPPPLGFQVGMKLEAVNRMNPSLVCVASVTDVVDSRFLVHFDNWDDTYDYWCDPSSPYIHPVGWCQKQGKPLTPPQDYPDPDNFCWEKYLEETGASAVPTWAFKVRPPHSFLVNMKLEAVDRRNPALIRVASVEDVEDHRIKIHFDGWSHGYDFWIDADHPDIHPAGWCSKTGHPLQPPLGPREPSSASPGG
notes: Negative control; also called GST-3×MBTD355N; point-mutant; not shown: GST tag and PreScission linker of the pGEX6P1 vector at the N end
B1: no binding [1]; no binding [2]; no binding [3]. B1: no binding [4]; no binding [5]; no binding (tested: 1 µg protein and 1 µg peptide) [6]. B1: no binding (tested: 1 µg protein and 1 µg peptide) [7].

B2: 3× Flag-3×MBTD355N (designed binder)
chain: EEWSSSQPATGEKKECWSWESYLEEQKAITAPVSLFQDSQAVTHNKNGFKLGMKLEGIDPQHPSMYFILTVAEVCGYRLRLHFDGYSECHDFWVNANSPDIHPAGWFEKTGHKLQPPKGYKEEEFSWSQYLRSTRAQAAPKHLFVSQSHSPPPLGFQVGMKLEAVNRMNPSLVCVASVTDVVDSRFLVHFDNWDDTYDYWCDPSSPYIHPVGWCQKQGKPLTPPQDYPDPDNFCWEKYLEETGASAVPTWAFKVRPPHSFLVNMKLEAVDRRNPALIRVASVEDVEDHRIKIHFDGWSHGYDFWIDADHPDIHPAGWCSKTGHPLQPPLGPREPSSASPGG
notes: also called N-terminally Flag-tagged 3×MBTD355N; not shown: made by PreScission cleavage of the GST version
B2: no binding [8]; no binding [9]; no binding [10].

B3: GST-3× Flag-3×MBTD355N (designed binder, not shown: a dimerising Fc or GST; small tags and cut ends)
chain: EEWSSSQPATGEKKECWSWESYLEEQKAITAPVSLFQDSQAVTHNKNGFKLGMKLEGIDPQHPSMYFILTVAEVCGYRLRLHFDGYSECHDFWVNANSPDIHPAGWFEKTGHKLQPPKGYKEEEFSWSQYLRSTRAQAAPKHLFVSQSHSPPPLGFQVGMKLEAVNRMNPSLVCVASVTDVVDSRFLVHFDNWDDTYDYWCDPSSPYIHPVGWCQKQGKPLTPPQDYPDPDNFCWEKYLEETGASAVPTWAFKVRPPHSFLVNMKLEAVDRRNPALIRVASVEDVEDHRIKIHFDGWSHGYDFWIDADHPDIHPAGWCSKTGHPLQPPLGPREPSSASPGG
B3: no binding [10].

B4: 3×MBTD355N-Flag (C-terminally Flag-tagged 3×MBTD355N) (designed binder, not shown: small tags and cut ends)
chain: EEWSSSQPATGEKKECWSWESYLEEQKAITAPVSLFQDSQAVTHNKNGFKLGMKLEGIDPQHPSMYFILTVAEVCGYRLRLHFDGYSECHDFWVNANSPDIHPAGWFEKTGHKLQPPKGYKEEEFSWSQYLRSTRAQAAPKHLFVSQSHSPPPLGFQVGMKLEAVNRMNPSLVCVASVTDVVDSRFLVHFDNWDDTYDYWCDPSSPYIHPVGWCQKQGKPLTPPQDYPDPDNFCWEKYLEETGASAVPTWAFKVRPPHSFLVNMKLEAVDRRNPALIRVASVEDVEDHRIKIHFDGWSHGYDFWIDADHPDIHPAGWCSKTGHPLQPPLGPREPSSASPGG
B4: no binding [8]; no binding [9].

B5: GST-tagged 3×MBT (three MBT repeats of L3MBTL1, amino acids 190-530, expressed as a GST fusion) (designed binder, not shown: a dimerising Fc or GST)
chain: EEWSSSQPATGEKKECWSWESYLEEQKAITAPVSLFQDSQAVTHNKNGFKLGMKLEGIDPQHPSMYFILTVAEVCGYRLRLHFDGYSECHDFWVNANSPDIHPAGWFEKTGHKLQPPKGYKEEEFSWSQYLRSTRAQAAPKHLFVSQSHSPPPLGFQVGMKLEAVDRMNPSLVCVASVTDVVDSRFLVHFDNWDDTYDYWCDPSSPYIHPVGWCQKQGKPLTPPQDYPDPDNFCWEKYLEETGASAVPTWAFKVRPPHSFLVNMKLEAVDRRNPALIRVASVEDVEDHRIKIHFDGWSHGYDFWIDADHPDIHPAGWCSKTGHPLQPPLGPREPSSASPGG
notes: Used in solution (peptide pull-down, Far Western, peptide array) and coupled to GSH-Sepharose (protein pull-down); also called GST-3×MBT; 3xMBT
B5: no binding (3× Flag-SIRT1K622R); no binding [11]; no binding [12].
